According to article PMC11989750, “Mating Increases CHST10 Activity in Rat Oviductal Mucosa to Induce the Synthesis of HNK-1 Glycoproteins: Possible Role in Sperm–Oviduct Interactions” (International Journal of Molecular Sciences, 2025):

Experiments:
[1] = substrate: [H][C@@]12CCc3cc(O[C@@H]4O[C@H](C(=O)O)[C@@H](O)[C@H](O)[C@H]4O)ccc3[C@@]1([H])CC[C@]1(C)[C@@H](O)CC[C@@]21[H]; assay: malachite green phosphate assay coupled to phosphatase CP3, A620; assay type: biochemical, Homo sapiens; conditions: acceptor substrate, PAPS as donor, 37 °C, 20 min
[2] = substrate: O=C1OC(c2ccc(O)cc2)(c2ccc(O[C@@H]3O[C@H](C(=O)O)[C@@H](O)[C@H](O)[C@H]3O)cc2)c2ccccc21; assay: as above; assay type: biochemical, Homo sapiens; conditions: acceptor substrate, PAPS as donor, 37 °C, 20 min

B1: human recombinant CHST10 (Homo sapiens) (protein)
chain: TFKDPDVYSAKQEFLFLTTMPEVRKLPEEKHIPEELKPTGKELPDSQLVQPLVYMERLELIRNVCRDDALKNLSHTPVSKFVLDRIFVCDKHKILFCQTPKVGNTQWKKVLIVLNGAFSSIEEIPENVVHDHEKNGLPRLSSFSDAEIQKRLKTYFKFFIVRDPFERLISAFKDKFVHNPRFEPWYRHEIAPGIIRKYRRNRTETRGIQFEDFVRYLGDPNHRWLDLQFGDHIIHWVTYVELCAPCEIMYSVIGHHETLEDDAPYILKEAGIDHLVSYPTIPPGITVYNRTKVEHYFLGISKRDIRRLYARFEGDFKLFGYQKPDFLLN
notes: commercial recombinant protein (R&D Systems 6140-ST)
[1]
  Km: 73.9 ± 5.4 µM
[2]
  Km: 41.6 ± 2.4 µM
